From patent publication US20200308257A1 (VISTERRA, published 2020)

How the values were obtained:
Experiment in all cases: cell-based or functional assay
[1] = target: T1, hemagglutinin (HA) of influenza A/PR/8/1934 (H1N1) (influenza A virus (H1N1), UniProt P03452 18-565)
[2] = target: hemagglutinin (HA) of influenza A/South Africa/80837/2017 (H1N1) (influenza A virus (H1N1))
[3] = target: hemagglutinin (HA) of influenza A/South Africa/80919/2017 (H3N2) (influenza A virus (H3N2))
[4] = target: hemagglutinin (HA) of influenza A/South Africa/80836/2017 (H1N1) (influenza A virus (H1N1))
[5] = target: T1, hemagglutinin (HA) of influenza …; remark: listed apart in the source
[6] = target: hemagglutinin (HA) of influenza A/South Africa/81313/2017 (H3N2) (influenza A virus (H3N2))
[7] = target: hemagglutinin (HA) of influenza A/South Africa/80316/2017 (H3N2) (influenza A virus (H3N2))
[8] = target: hemagglutinin (HA) of influenza A/South Africa/80714/2017 (H3N2) (influenza A virus (H3N2))
[9] = target: hemagglutinin (HA) of influenza A/South Africa/80308/2017 (H3N2) (influenza A virus (H3N2))
[10] = target: hemagglutinin (HA) of influenza A/South Africa/80521/2017 (H3N2) (influenza A virus (H3N2))
[11] = target: hemagglutinin (HA) of influenza A/South Africa/80811/2017 (H1N1) (influenza A virus (H1N1))
[12] = target: hemagglutinin (HA) of influenza A/South Africa/81130/2017 (H3N2) (influenza A virus (H3N2))
[13] = target: hemagglutinin (HA) of influenza A/South Africa/80839/2017 (H3N2) (influenza A virus (H3N2))
[14] = target: hemagglutinin (HA) of influenza A/South Africa/80860/2017 (H1N1) (influenza A virus (H1N1))
[15] = target: hemagglutinin (HA) of influenza A/South Africa/0808006/2018 (H1N1) (influenza A virus (H1N1))

T1 sequence (P03452 18-565 limits assumed): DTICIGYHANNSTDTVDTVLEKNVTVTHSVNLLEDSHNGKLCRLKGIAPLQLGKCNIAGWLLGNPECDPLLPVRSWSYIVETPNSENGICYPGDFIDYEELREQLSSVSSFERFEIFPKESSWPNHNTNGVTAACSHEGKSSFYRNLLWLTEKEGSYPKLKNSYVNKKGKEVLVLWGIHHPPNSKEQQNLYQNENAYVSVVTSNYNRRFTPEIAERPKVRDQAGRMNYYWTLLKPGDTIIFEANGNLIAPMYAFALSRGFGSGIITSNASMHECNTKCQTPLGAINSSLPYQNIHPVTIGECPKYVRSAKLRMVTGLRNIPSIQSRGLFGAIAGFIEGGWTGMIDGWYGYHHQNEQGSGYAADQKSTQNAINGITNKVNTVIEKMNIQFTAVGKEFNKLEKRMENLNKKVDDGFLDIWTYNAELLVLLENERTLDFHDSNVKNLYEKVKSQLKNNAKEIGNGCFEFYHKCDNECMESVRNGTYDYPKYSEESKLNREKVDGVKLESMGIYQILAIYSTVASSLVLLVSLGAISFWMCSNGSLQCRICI

B1: VIS410 (antibody, V domains shown)
VH: QVQLLETGGGLVKPGQSLKLSCAASGFTFTSYAMHWVRQPPGKGLEWVAVVSYDGNYKYYADSVQGRFTISRDNSKNTLYLQMNSLRAEDTAVYYCAKDSRLRSLLYFEWLSQGYFNPWGQGTTLTVSS
VL: DIQMTQSPSSLSASVGDRVTITCRSSQSITFDYKNYLAWYQQKPGKAPKLLIYWGSYLESGVPSRFSGSGSGTDFTLTISSLQPEDFATYYCQQHYRTPPSFGQGTKVEIK
EC50, antiviral activity against wild-type A/PR/8/1934 (H1N1) virus [1]: 7.4 nM
IC50, phenotypic IC50 assay (virus infection of MDCK cells) [2]: 0.25 µg/mL
IC50, phenotypic IC50 assay (virus infection of MDCK cells) [3]: 2.55 µg/mL
IC50, phenotypic IC50 assay (virus infection of MDCK cells) [4]: 0.73 µg/mL
IC50 (µg/mL), baloxavir-sensitive A/Puerto Rico/8/1934_H1N1 WT virus [5]: 0.3 µg/mL
IC50, phenotypic IC50 assay (virus infection of MDCK cells) [6]: 1.38 µg/mL
IC50, phenotypic IC50 assay (virus infection of MDCK cells) [7]: 0.57 µg/mL
IC50, phenotypic IC50 assay (virus infection of MDCK cells) [8]: 0.13 µg/mL
IC50, phenotypic IC50 assay (virus infection of MDCK cells) [9]: 0.91 µg/mL
IC50, phenotypic IC50 assay (virus infection of MDCK cells) [10]: 1.09 µg/mL
IC50, phenotypic IC50 assay (virus infection of MDCK cells) [11]: 0.38 µg/mL
IC50, phenotypic IC50 assay (virus infection of MDCK cells) [12]: 1 µg/mL
IC50, phenotypic IC50 assay (virus infection of MDCK cells) [13]: 0.41 µg/mL
IC50, phenotypic IC50 assay (virus infection of MDCK cells) [14]: 0.26 µg/mL
IC50, phenotypic IC50 assay (virus infection of MDCK cells) [15]: 0.42 µg/mL
